From patent US20250076311A1 (Chugai, published 2025) come the findings set out here.

The target in one assay is T1, Human latent myostatin (human, UniProt O14793 25-266; O14793 267-375).
T1 construct: Biotinylated in the ELISAs; also called human myostatin latent form
T1 sequence 1: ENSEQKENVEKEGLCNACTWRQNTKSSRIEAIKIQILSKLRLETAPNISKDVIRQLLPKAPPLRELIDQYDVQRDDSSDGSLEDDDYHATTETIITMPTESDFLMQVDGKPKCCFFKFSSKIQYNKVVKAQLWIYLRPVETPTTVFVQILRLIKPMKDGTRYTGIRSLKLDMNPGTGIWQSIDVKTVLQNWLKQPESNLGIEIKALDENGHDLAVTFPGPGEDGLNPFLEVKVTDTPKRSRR
T1 sequence 2: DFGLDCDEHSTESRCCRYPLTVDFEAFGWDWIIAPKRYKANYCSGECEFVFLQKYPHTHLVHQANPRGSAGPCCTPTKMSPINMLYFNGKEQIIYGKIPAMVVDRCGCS
In words: Western blot with the antibody as probe on GST-tagged 100-amino-acid fragments of the human latent myostatin propeptide expressed in E. coli BL21 (lanes 1-8), GST control (lane 9) and human latent myostatin 100 ng (lane 10). From the text:
Fragments of the N-terminal propeptide coding region of human latent myostatin were cloned into a pGEX4.1 vector so as to produce GST tagged propeptide fragments of 100 amino acid each, with 80 amino acid overlap (FIG. 22A). Protein expression was induced in transformed BL21 competent cells with Overnight Express Autoinduction System (Merck Millipore) and protein was extracted using the BUGBUSTER® protein extraction reagent (Novagen).
(In western blotting, separated proteins are transferred to a membrane and probed.)

The target of assay [1] is T2, human FcγRIIb extracellular domain, His-tagged (human, UniProt P31994 43-217).
T2 construct: also called FcgRIIb (human); not shown: C-terminal His-tag
T2 sequence: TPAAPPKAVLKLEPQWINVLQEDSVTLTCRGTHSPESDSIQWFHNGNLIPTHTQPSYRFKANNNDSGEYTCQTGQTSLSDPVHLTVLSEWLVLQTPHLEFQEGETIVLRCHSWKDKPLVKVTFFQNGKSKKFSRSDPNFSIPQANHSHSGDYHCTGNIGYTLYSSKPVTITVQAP
Put plainly: SPR Biacore, antibody captured, FcgR analyte.

Assay [2] concerns the target T3, cynomolgus monkey FcγRIIa1 extracellular domain, His-tagged (cynomolgus monkey).
T3 construct: also called cyno FcγRIIa1; cynoFcgRIIa1; not shown: C-terminal His-tag
T3 chain: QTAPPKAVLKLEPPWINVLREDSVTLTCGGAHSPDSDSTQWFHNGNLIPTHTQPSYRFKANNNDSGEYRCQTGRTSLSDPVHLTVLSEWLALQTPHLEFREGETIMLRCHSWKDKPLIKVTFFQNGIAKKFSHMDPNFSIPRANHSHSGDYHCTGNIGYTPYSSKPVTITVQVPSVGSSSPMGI
In words: SPR Biacore, antibody captured, FcgR analyte. For orientation: Surface plasmon resonance follows binding to a sensor surface in real time, without labels.

Assay [3] addresses T4, cynomolgus monkey FcγRIIa3 extracellular domain, His-tagged (cynomolgus monkey).
T4 construct: also called cyno FcγRIIa3; cynoFcgRIIa3; not shown: C-terminal His-tag
T4 chain: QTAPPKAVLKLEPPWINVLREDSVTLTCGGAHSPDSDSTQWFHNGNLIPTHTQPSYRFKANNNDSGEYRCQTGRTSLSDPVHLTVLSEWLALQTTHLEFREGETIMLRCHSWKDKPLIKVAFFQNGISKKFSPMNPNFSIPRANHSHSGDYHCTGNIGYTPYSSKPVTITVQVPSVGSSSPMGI
Put plainly: SPR Biacore, antibody captured, FcgR analyte.

For assay [4], the target named is T5, cynomolgus monkey FcγRIIb extracellular domain, His-tagged (cynomolgus monkey).
T5 construct: also called cyno FcγRIIb; cynoFcγRIIb; not shown: C-terminal His-tag
T5 chain: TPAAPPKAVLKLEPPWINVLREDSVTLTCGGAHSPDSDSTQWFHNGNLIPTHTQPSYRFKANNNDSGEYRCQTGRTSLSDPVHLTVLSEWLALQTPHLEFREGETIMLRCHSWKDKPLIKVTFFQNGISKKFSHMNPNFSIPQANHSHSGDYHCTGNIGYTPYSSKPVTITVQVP
In words: SPR Biacore, KD(SG1)/KD(variant).

In assay [5] the target is T3, cynomolgus monkey FcγRIIa1 …. Put plainly: SPR Biacore, KD(SG1)/KD(variant).
Assay [6] concerns the target T4, cynomolgus monkey FcγRIIa3 …. Put plainly: SPR Biacore, KD(SG1)/KD(variant).
Assay [7] addresses T6, human FcγRIIIaV extracellular domain, C-terminal His-tag (human, UniProt P08637 17-208).
T6 construct: also called FcgRIIIaV
In words: SPR (BIACORE), captured by anti-human kappa, FcgR analyte. As for the experimental part:
The kinetic analysis of interactions between these antibodies and FcγR was carried out using BIACORE® T200 or BIACORE® 4000 (GE Healthcare). HBS-EP+ (GE Healthcare) was used as the running buffer, and the measurement temperature was set to 25° C. […] After the measurement, the antibody captured on the chip was washed off by allowing reaction with 10 mM glycine-HCl, pH1.5 and 25 mM NaOH so that the chip was regenerated and used repeatedly. The sensorgrams obtained as measurement results were analyzed by the 1:1 Langmuir binding model using the BIACORE® Evaluation Software to calculate the binding rate constant ka (L/mol/s) and dissociation rate constant kd (1/s), and the dissociation constant KD (mol/L) was calculated from these values. […] Regarding such interactions, KD values were calculated using the following 1:1 binding model described in BIACORE® T100 Software Handbook BR1006-48 Edition AE.
Furthermore, the substitutions used in Example 29 for improving antibody half-life and reducing binding to rheumatoid factor were introduced into human FcγRIIb-enhanced Fc variants and their affinity against human FcγRs were analyzed (Table 29).

The target of assay [8] is T7, human FcγRIIIaV extracellular domain, His-tagged (human, UniProt P08637 17-208).
T7 construct: also called FcgRIIIaV; not shown: C-terminal His-tag
Put plainly: SPR Biacore, KD(SG1)/KD(variant).

Assay [9] addresses T8, cynomolgus monkey FcγRIIa2 extracellular domain, His-tagged (cynomolgus monkey).
T8 construct: also called cyno FcγRIIa2; cynoFcgRIIa2; not shown: C-terminal His-tag
T8 chain: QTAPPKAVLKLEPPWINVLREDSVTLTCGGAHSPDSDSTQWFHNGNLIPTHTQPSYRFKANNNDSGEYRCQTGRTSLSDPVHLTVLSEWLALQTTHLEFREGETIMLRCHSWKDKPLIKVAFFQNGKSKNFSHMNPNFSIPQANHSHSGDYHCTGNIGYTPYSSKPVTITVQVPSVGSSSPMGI
In words: SPR Biacore, antibody captured, FcgR analyte.

T7 sequence (P08637 17-208 F176V): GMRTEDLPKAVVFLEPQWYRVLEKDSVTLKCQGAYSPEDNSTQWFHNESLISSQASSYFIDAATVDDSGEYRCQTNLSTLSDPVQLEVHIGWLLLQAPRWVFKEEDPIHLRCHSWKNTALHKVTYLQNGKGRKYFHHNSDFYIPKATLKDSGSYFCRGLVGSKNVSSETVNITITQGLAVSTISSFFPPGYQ
T6 sequence (P08637 17-208 F176V): as above

B1: MST1538 (antibody, human IgG1, kappa, V domains shown)
VH: QSLEESGGGLVKPGGTLTLTCKASGIDFSSYYYMCWVRQAPGKGLEWIACIYAGISGSTYYASWAKGRFTISKTSSTTVTLQMTSLTAADTATYFCARDPYHFDYGSLWGPGTLVTVSS
VL: ALVMTQTPASVSAAVGGTVTINCQASQSVYGGNELSWYQQEPGQPPKLLIYSASKLASGVPSRFKGSGSGTQFTLTISGVQCDDAAAYYCAGYRTYSDDDNAFGGGTKVEIKR
notes: Constant regions as for MST1504
With B1, the binding result with Human latent myostatin is given as “binds”.

B2: MST1572 (antibody, human IgG1, kappa, V domains shown)
VH: QSVEESGGRLVTPGTPLTLTCTVSGFSLSSYAMSWVRQAPGKGLEWIGIIYGVGSTYYASWAKGRFTISKTSTTVDLKIASPTTEDTATYFCARDDYGWGYTNLWGPGTLVTVSS
VL: QVLTQTPSSVSAAVGGTVTINCQSSQSVYNNNYLAWFQQKPGQPPKLLIYDASKLASGVPSRFKGSGSGTQFTLTISGVQCDDAATYYCQGSYYSSGWYRAFGGGTKVEIKR
notes: as for B1
As for B2, the binding result in the assay with Human latent myostatin is given as “binds”.

B3: M103205H795-MY010/M103202L889-SK1 (antibody, human IgG1, kappa, name in EU numbering)
heavy: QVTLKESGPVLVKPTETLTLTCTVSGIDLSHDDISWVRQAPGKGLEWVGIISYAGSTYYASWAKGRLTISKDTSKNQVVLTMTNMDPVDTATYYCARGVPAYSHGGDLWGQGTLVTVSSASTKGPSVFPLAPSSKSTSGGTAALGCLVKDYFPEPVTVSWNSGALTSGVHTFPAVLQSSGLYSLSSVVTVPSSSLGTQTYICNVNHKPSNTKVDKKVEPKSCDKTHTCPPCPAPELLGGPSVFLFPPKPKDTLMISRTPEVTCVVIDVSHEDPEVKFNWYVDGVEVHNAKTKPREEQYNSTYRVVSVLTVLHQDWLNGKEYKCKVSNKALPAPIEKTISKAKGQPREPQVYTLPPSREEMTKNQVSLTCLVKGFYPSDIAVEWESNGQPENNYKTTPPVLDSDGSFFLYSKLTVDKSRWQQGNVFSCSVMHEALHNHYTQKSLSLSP
light: DIVMTQSPATLSLSPGERATLSCTSSQSVYHANWLSWFQQKPGQPPKLLIYWASTLAYGVPSRFSGSGSGTDFTLTISSLQPEDAATYYCAGGYGGGRYAFGQGTKVEIKRTVAAPSVFIFPPSDEQLKSGTASVVCLLNNFYPREAKVQWKVDNALQSGNSQESVTEQDSKDSTYSLSSTLTLSKADYEKHKVYACEVTHQGLSSPVTKSFNRGEC
notes: Substitution introduced into M103205H795-SG1; EU numbering
Broadly, the Kd is a measure of binding affinity in units of concentration. With B3, the dissociation constant (Kd) was found to be 5.1 µM in assay [1], 3.5 µM in assay [2] and 16 µM in [3]. In addition, the “KD fold (SG1 = 1)” value was found to be 0.9 fold in [4], 0.9 fold in [5] and 1.1 fold in assay [6].

B4: MS103240H795-TT72/M103202L1045-SK1 (antibody)
heavy: QVQLVESGGGLVQPGGSLRLSCAVSGIDLSHDDISWVRQAPGKGLEWVSIISYAGSTYYASWAKGRLTISKDTSKNQVVLTMTNMDPVDTATYYCARGVPAYSHGGDLWGQGTLVTVSSASTKGPSVFPLAPSSKSTSGGTAALGCLVKDYFPEPVTVSWNSGALTSGVHTFPAVLQSSGLYSLSSVVTVPSSSLGTQTYICNVNHKPSNTKVDKKVEPKSCDKTHTCPPCPAPELLGGDSVFLFPPKPKDVLMISRTPEVTCVVIDVSHEDPEVKFNWYVDGVEVHNAKTKPREEQYNSTYRVVSVLPVLHRDWLNGKEYKCKVSNKALPKPIEKTISKAKGQPREPQVYTLPPSREEMTKNQVSLTCLVKGFYPSDIAVEWESNGQPENNYKTTPPVLDSDGSFFLYSKLTVKKSRWQQGNVFSCSVMHEALHAHYTRKELSLSP
light: DIVMTQSPATLSLSPGERATLSCTTSQSVYHENWLSWFQQKPGQPPKLLIYWASTLAYGVPSRFSGSGSGTDFTLTISSLQPEDAATYYCAGGYGGGRYAFGQGTKVEIKRTVAAPSVFIFPPSDEQLKSGTASVVCLLNNFYPREAKVQWKVDNALQSGNSQESVTEQDSKDSTYSLSSTLTLSKADYEKHKVYACEVTHQGLSSPVTKSFNRGEC
notes: copies: 2 + 2
Regarding B4, binding in assay [7] was put at a Kd of 900 µM.

B5: M103205H795-MY037/M103202L889-SK1 (antibody, human IgG1, kappa, name in EU numbering)
heavy: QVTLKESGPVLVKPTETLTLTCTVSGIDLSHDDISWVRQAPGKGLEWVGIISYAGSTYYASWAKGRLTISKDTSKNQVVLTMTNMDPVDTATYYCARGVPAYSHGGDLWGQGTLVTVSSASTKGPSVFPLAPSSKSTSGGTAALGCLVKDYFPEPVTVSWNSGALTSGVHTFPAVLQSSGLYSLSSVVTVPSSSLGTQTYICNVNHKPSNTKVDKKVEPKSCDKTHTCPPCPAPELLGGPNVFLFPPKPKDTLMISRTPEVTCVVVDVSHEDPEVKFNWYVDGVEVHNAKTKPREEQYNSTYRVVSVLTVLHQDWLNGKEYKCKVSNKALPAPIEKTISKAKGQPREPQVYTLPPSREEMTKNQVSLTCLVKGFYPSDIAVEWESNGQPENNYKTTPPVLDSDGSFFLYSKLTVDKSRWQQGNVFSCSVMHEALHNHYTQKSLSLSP
light: DIVMTQSPATLSLSPGERATLSCTSSQSVYHANWLSWFQQKPGQPPKLLIYWASTLAYGVPSRFSGSGSGTDFTLTISSLQPEDAATYYCAGGYGGGRYAFGQGTKVEIKRTVAAPSVFIFPPSDEQLKSGTASVVCLLNNFYPREAKVQWKVDNALQSGNSQESVTEQDSKDSTYSLSSTLTLSKADYEKHKVYACEVTHQGLSSPVTKSFNRGEC
notes: as for B3
B5: the “KD fold (SG1 = 1)” value in assay [8] came out at 2.19 fold; in [6], 1.6 fold.

B6: M103205H795-MY064/M103202L889-SK1 (antibody, human IgG1, kappa, name in EU numbering)
heavy: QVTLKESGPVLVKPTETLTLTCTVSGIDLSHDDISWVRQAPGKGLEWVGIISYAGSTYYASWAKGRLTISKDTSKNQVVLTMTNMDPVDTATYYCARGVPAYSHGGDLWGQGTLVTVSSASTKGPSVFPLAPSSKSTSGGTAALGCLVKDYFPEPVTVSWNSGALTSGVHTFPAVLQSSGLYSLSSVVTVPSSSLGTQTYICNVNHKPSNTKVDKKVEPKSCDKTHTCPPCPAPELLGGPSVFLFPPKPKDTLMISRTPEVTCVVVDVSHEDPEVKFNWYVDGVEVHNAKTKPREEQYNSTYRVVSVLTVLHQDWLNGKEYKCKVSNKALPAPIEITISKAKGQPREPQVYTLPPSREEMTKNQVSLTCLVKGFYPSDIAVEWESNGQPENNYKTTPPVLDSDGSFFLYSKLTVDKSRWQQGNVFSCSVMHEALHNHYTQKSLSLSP
light: DIVMTQSPATLSLSPGERATLSCTSSQSVYHANWLSWFQQKPGQPPKLLIYWASTLAYGVPSRFSGSGSGTDFTLTISSLQPEDAATYYCAGGYGGGRYAFGQGTKVEIKRTVAAPSVFIFPPSDEQLKSGTASVVCLLNNFYPREAKVQWKVDNALQSGNSQESVTEQDSKDSTYSLSSTLTLSKADYEKHKVYACEVTHQGLSSPVTKSFNRGEC
notes: as for B3
As for B6, the values for the equilibrium dissociation constant (Kd) in [9] and in [3] were 2.6 µM and 6.9 µM, respectively.

B7: M103205H795-MY016/M103202L889-SK1 (antibody, human IgG1, kappa, name in EU numbering)
heavy: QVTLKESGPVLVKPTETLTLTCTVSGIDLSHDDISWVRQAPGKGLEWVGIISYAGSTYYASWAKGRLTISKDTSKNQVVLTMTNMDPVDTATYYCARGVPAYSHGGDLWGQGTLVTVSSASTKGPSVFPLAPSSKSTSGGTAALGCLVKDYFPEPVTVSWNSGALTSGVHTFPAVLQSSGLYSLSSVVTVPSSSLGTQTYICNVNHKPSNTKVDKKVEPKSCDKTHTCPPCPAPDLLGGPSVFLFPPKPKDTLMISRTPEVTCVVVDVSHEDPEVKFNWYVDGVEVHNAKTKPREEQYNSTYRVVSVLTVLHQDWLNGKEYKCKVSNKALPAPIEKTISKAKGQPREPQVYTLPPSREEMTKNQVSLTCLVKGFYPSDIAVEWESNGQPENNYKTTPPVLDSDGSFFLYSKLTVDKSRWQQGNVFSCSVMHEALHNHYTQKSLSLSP
light: DIVMTQSPATLSLSPGERATLSCTSSQSVYHANWLSWFQQKPGQPPKLLIYWASTLAYGVPSRFSGSGSGTDFTLTISSLQPEDAATYYCAGGYGGGRYAFGQGTKVEIKRTVAAPSVFIFPPSDEQLKSGTASVVCLLNNFYPREAKVQWKVDNALQSGNSQESVTEQDSKDSTYSLSSTLTLSKADYEKHKVYACEVTHQGLSSPVTKSFNRGEC
notes: Substitution introduced into M103205H795-SG1
Consider B7, for which the “KD fold (SG1 = 1)” value in [8] worked out at 2.19 fold.

B8: M103205H795-MY066/M103202L889-SK1 (antibody, human IgG1, kappa, name in EU numbering)
heavy: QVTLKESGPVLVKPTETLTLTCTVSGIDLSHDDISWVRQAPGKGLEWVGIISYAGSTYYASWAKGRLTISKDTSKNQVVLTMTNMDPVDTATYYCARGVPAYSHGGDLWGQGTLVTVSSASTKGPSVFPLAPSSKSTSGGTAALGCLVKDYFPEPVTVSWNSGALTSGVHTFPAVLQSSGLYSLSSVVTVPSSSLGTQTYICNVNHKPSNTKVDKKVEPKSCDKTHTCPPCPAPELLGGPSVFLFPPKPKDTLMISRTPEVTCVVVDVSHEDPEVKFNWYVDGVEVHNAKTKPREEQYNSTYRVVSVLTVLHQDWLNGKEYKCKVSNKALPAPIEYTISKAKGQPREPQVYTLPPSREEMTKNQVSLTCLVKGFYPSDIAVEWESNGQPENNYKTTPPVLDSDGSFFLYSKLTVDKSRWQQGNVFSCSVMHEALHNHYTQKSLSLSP
light: DIVMTQSPATLSLSPGERATLSCTSSQSVYHANWLSWFQQKPGQPPKLLIYWASTLAYGVPSRFSGSGSGTDFTLTISSLQPEDAATYYCAGGYGGGRYAFGQGTKVEIKRTVAAPSVFIFPPSDEQLKSGTASVVCLLNNFYPREAKVQWKVDNALQSGNSQESVTEQDSKDSTYSLSSTLTLSKADYEKHKVYACEVTHQGLSSPVTKSFNRGEC
notes: as for B3
Take B8: the Kd in [9] turned out to be 2.6 µM; in [3], 6.7 µM.

B9: MS103240H795-TT90/M103202L1045-SK1 (antibody)
heavy: QVQLVESGGGLVQPGGSLRLSCAVSGIDLSHDDISWVRQAPGKGLEWVSIISYAGSTYYASWAKGRLTISKDTSKNQVVLTMTNMDPVDTATYYCARGVPAYSHGGDLWGQGTLVTVSSASTKGPSVFPLAPSSKSTSGGTAALGCLVKDYFPEPVTVSWNSGALTSGVHTFPAVLQSSGLYSLSSVVTVPSSSLGTQTYICNVNHKPSNTKVDKKVEPKSCDKTHTCPPCPAPEYLGGDSVFLFPPKPKDVLMISRTPEVTCVVIDVSHEDPEVKFNWYVDGVEVHNAKTKPREEQYNSTYRVVSVLPVLHRDWLNGKEYKCKVSNKALPKPIEKTISKAKGQRREPQVYTLPPSREEMTKNQVSLTCLVKGFYPSDIAVEWESNGQPENNYKTTPPVLDSDGSFFLYSKLTVDKSRWQQGNVFSCSVMHEALHAHYTRKELSLSP
light: DIVMTQSPATLSLSPGERATLSCTTSQSVYHENWLSWFQQKPGQPPKLLIYWASTLAYGVPSRFSGSGSGTDFTLTISSLQPEDAATYYCAGGYGGGRYAFGQGTKVEIKRTVAAPSVFIFPPSDEQLKSGTASVVCLLNNFYPREAKVQWKVDNALQSGNSQESVTEQDSKDSTYSLSSTLTLSKADYEKHKVYACEVTHQGLSSPVTKSFNRGEC
The molecule B9 registered a Kd in [7] of 960 µM.
